{
  "source": "patent US20240033291A1",
  "about": "(CELLENGENE, published 2024)",
  "binders": {"B1": {"name": "anti-MSLN-scFv antibody MSLN3 (purified scFv) (scFv)", "chain": "EVQLVESGGGLVQPGGSLRLSCAASGFTFSDYAMSWVRQAPGKGLEWVSAISSSGGTTYYADSVKGRFTISRDNSKNTLYLQMNSLRAEDTAVYYCAKEEEGEWREYFDVWGQGTLVTVSSGGGGSGGGGSGGGGSDIQMTQSPSSLSASVGDRVTITCRASQSISSYLNWYQQKPGKAPKLLIYATSTLQSGVPSRFSGSGSGTDFTLTISSLQPEDFATYYCQQSYTFPYTFGQGTKVEIKAST"}},
  "target": "human mesothelin protein (MSLN antigen, Acro Biosystems) (human, UniProt Q13421 37-622)",
  "sequence (Q13421 37-630)": "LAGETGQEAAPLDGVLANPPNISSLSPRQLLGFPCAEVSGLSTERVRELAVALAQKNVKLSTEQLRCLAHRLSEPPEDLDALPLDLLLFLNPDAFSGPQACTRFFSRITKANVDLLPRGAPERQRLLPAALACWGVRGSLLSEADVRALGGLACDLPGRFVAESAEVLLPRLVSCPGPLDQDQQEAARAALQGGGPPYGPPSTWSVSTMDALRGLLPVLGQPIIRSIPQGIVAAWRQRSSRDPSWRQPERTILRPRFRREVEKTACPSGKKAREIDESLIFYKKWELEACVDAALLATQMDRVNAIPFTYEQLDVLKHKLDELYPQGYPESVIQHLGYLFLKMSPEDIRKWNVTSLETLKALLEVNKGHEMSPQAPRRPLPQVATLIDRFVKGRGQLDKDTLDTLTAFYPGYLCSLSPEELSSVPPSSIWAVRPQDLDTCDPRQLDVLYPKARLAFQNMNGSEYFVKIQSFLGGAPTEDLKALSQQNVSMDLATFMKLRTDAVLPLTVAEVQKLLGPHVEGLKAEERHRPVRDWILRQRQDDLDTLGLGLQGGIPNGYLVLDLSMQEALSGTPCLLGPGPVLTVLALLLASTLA",
  "experiment": "ELISA, coated human mesothelin 1 ug/mL, purified scFv serially diluted, anti-StrepMAB HRP",
  "data": [
    {"binder": "B1", "values": [
      {"measurement": "EC50", "result": 145, "unit": "nM"}
    ]}
  ]
}
